We go through three molecules from article PMC3428507 (Journal of molecular biology, 2012).

Sequences and labels used below:
B1: Pf1 PHD1/MBD (residues 48–241) (domain or fragment, human, UniProt Q96QT6 48-241, looked up)
chain: RRSGRATNHDSCDSCKEGGDLLCCDHCPAAFHLQCCNPPLSEEMLPPGEWMCHRCTVRRKKREQKKELGHVNGLVDKSGKRTTSPSSDTDLLDRSASKTELKAIAHARILERRASRPGTPTSSASTETPTSEQNDVDEDIIDVDEEPVAAEPDYVQPQLRRPFELLIAAAMERNPTQFQLPNELTCTTALPGSS

Holding throughout (test): NMR titration
For test [1], the target named is T1, full-length MRG15 (residues 1–323) (human, UniProt Q9UBU8-2 1-323).
The target of test [2] is T1, full-length MRG15 (residues 1–323). The source holds these as a separate data set.
The target of test [3] is B1.

Like-named read-outs stand apart in the source and are kept apart here.

Turning to B1, in test [1], the binding result is “binds”. Take DYVQPQLRRPFELLIAAAMERNPTQFQLPNELTCTTALPGSS (domain or fragment, human, UniProt Q96QT6 200-241, looked up) [MRG-binding domain of Pf1 (residues 200–241)]: the binding result in test [2] is “binds”.

B2: MRG domain of MRG15 (residues 155–323) (domain or fragment)
chain: not shown
B2: in test [3], the binding result is on record as “binds”.
